Experimental findings from article PMC7935748 (Molecular cell, 2021) are described below.

Series [1] has as its target MBP-RADX (Homo sapiens, UniProt Q6NSI4 1-855). Kind of series: EMSA. Background: Mobility shift assays separate free from complexed probe on a gel.
In series [2] the target is MBP-RADX QVPK (Homo sapiens, UniProt Q6NSI4 1-855, Q451A;V452A;P453A;K454A). In words: EMSA.
In series [3] the target is FLAG-GFP-RADX R389E (human, UniProt Q6NSI4 1-855, R389E). Kind of series: pull-down.
Series [4] concerns the target FLAG-GFP-RADX alanine mutant of residues 365-368 (human, UniProt Q6NSI4 1-855, 4-residue alanine mutation of residues 365-368). Kind of series: pull-down.
Series [5] deals with FLAG-GFP-RADX (human, UniProt Q6NSI4 1-855). In words: pull-down.

B1: dT60 (ssDNA)
DNA: TTTTTTTTTTTTTTTTTTTTTTTTTTTTTTTTTTTTTTTTTTTTTTTTTTTTTTTTTTTT
Turning to B1, the binding result in series [1] and in series [2] was “binds” throughout.

B2: Human RAD51 (natural protein, UniProt Q06609 1-339, looked up)
chain: MAMQMQLEANADTSVEEESFGPQPISRLEQCGINANDVKKLEEAGFHTVEAVAYAPKKELINIKGISEAKADKILAEAAKLVPMGFTTATEFHQRRSEIIQITTGSKELDKLLQGGIETGSITEMFGEFRTGKTQICHTLAVTCQLPIDRGGGEGKAMYIDTEGTFRPERLLAVAERYGLSGSDVLDNVAYARAFNTDHQTQLLYQASAMMVESRYALLIVDSATALYRTDYSGRGELSARQMHLARFLRMLLRLADEFGVAVVITNQVVAQVDGAAMFAADPKKPIGGNIIAHASTTRLYLRKGRGETRICKIYDSPCLPEAEAMFAINADGVGDAKD
For the molecule B2, the binding result in series [3], in series [4] and in series [5] was “binds” throughout.

B3: RAD51 K133R (natural protein, human, UniProt Q06609 1-339, looked up)
chain: MAMQMQLEANADTSVEEESFGPQPISRLEQCGINANDVKKLEEAGFHTVEAVAYAPKKELINIKGISEAKADKILAEAAKLVPMGFTTATEFHQRRSEIIQITTGSKELDKLLQGGIETGSITEMFGEFRTGRTQICHTLAVTCQLPIDRGGGEGKAMYIDTEGTFRPERLLAVAERYGLSGSDVLDNVAYARAFNTDHQTQLLYQASAMMVESRYALLIVDSATALYRTDYSGRGELSARQMHLARFLRMLLRLADEFGVAVVITNQVVAQVDGAAMFAADPKKPIGGNIIAHASTTRLYLRKGRGETRICKIYDSPCLPEAEAMFAINADGVGDAKD
On to B3, for which the binding result in series [5] was “binds”.
